EC50 of T cell activation (NFAT-RE luciferase luminescence in Jurkat effector cells), effector only condition and EC50 of T cell activation (NFAT-RE luciferase luminescence in Jurkat effector cells), effector+target (Daudi) condition data for one substance are collected here from patent US20230128688A1, “DIRECTED CONJUGATION TECHNOLOGIES” (KLEO PHARMACEUTICALS, INC., priority 2019, published 2023).

Bounds are passed on as bounds.

The assay concerns the target T cell receptor (TCR)/CD3 on effector Jurkat T cells. The assay can be described thus: cell-based or functional assay.

“III-1 (CD20×CD3; rituximab×SP34 scFv) (bispecific antibody)” showed an EC50 of T cell activation (NFAT-RE luciferase luminescence in Jurkat effector cells), effector only condition of more than 10 nM and an EC50 of T cell activation (NFAT-RE luciferase luminescence in Jurkat effector cells), effector+target (Daudi) condition of 0.1 nM.
